From article PMC9587022 (2022) come the findings set out here.

B1: HA-tagged UL97, wild type, full length (pCGN-HA-UL97) [human cytomegalovirus (HCMV)] / Flag-tagged 14-3-3 γ [human] (parent complex)
chain 1: MSSALRSRARSASLGTTTQGWDPPPLRRPSRARRRQWMREAAQAAAQAAVQAAQAAAAQVAQAHVDENEVVDLMADEAGGGVTTLTTLSSVSTTTVLGHATFSACVRSDVMRDGEKEDAASDKENLRRPVVPSTSSRGSAASGDGYHGLRCRETSAMWSFEYDRDGDVTSVRRALFTGGSDPSDSVSGVRGGRKRPLRPPLVSLARTPLCRRRVGGVDAVLEENDVELRAESQDSAVASGPGRIPQPLSGSSGEESATAVEADSTSHDDVHCTCSNDQIITTSIRGLTCDPRMFLRLTHPELCELSISYLLVYVPKEDDFCHKICYAVDMSDESYRLGQGSFGEVWPLDRYRVVKVARKHSETVLTVWMSGLIRTRAAGEQQQPPSLVGTGVHRGLLTATGCCLLHNVTVHRRFHTDMFHHDQWKLACIDSYRRAFCTLADAIKFLNHQCRVCHFDITPMNVLIDVNPHNPSEIVRAALCDYSLSEPYPDYNERCVAVFQETGTARRIPNCSHRLRECYHPAFRPMPLQKLLICDPHARFPVAGLRRYCMSELSALGNVLGFCLMRLLDRRGLDEVRMGTEALLFKHAGAACRALENGKLTHCSDACLLILAAQMSYGACLLGEHGAALVSHTLRFVEAKMSSCRVRAFRRFYHECSQTMLHEYVRKNVERLLATSDGLYLYNAFRRTTSIICEEDLDGDCRQLFPE
chain 2: MVDREQLVQKARLAEQAERYDDMAAAMKNVTELNEPLSNEERNLLSVAYKNVVGARRSSWRVISSIEQKTSADGNEKKIEMVRAYREKIEKELEAVCQDVLSLLDNYLIKNCSETQYESKVFYLKMKGDYYRYLAEVATGEKRATVVESSEKAYSEAHEISKEHMQPTHPIRLGLALNYSVFYYEIQNAPEQACHLAKTAFDDAIAELDTLNEDSYKDSTLIMQLLRDNLTLWTSDQQDDDGGEGNN
B2: HA-tagged UL97, wild type, full length (pCGN-HA-UL97) [human cytomegalovirus (HCMV)] / Flag-tagged 14-3-3 θ [human] (parent complex)
chain 1: B1 chain 1
chain 2: MEKTELIQKAKLAEQAERYDDMATCMKAVTEQGAELSNEERNLLSVAYKNVVGGRRSAWRVISSIEQKTDTSDKKLQLIKDYREKVESELRSICTTVLELLDKYLIANATNPESKVFYLKMKGDYFRYLAEVACGDDRKQTIDNSQGAYQEAFDISKKEMQPTHPIRLGLALNFSVFYYEILNNPELACTLAKTAFDEAIAELDTLNEDSYKDSTLIMQLLRDNLTLWTSDSAGEECDAAEGAEN
B3: HA-tagged UL97, wild type, full length (pCGN-HA-UL97) [human cytomegalovirus (HCMV)] / Flag-tagged 14-3-3 ε [human] (parent complex)
chain 1: B1 chain 1
chain 2: MDDREDLVYQAKLAEQAERYDEMVESMKKVAGMDVELTVEERNLLSVAYKNVIGARRASWRIISSIEQKEENKGGEDKLKMIREYRQMVETELKLICCDILDVLDKHLIPAANTGESKVFYYKMKGDYHRYLAEFATGNDRKEAAENSLVAYKAASDIAMTELPPTHPIRLGLALNFSVFYYEILNSPDRACRLAKAAFDDAIAELDTLSEESYKDSTLIMQLLRDNLTLWTSDMQGDGEEQNKEALQDVEDENQ
B4: HA-tagged UL97, wild type, full length (pCGN-HA-UL97) [human cytomegalovirus (HCMV)] / Flag-tagged 14-3-3 η [human] (parent complex)
chain 1: B1 chain 1
chain 2: MGDREQLLQRARLAEQAERYDDMASAMKAVTELNEPLSNEDRNLLSVAYKNVVGARRSSWRVISSIEQKTMADGNEKKLEKVKAYREKIEKELETVCNDVLSLLDKFLIKNCNDFQYESKVFYLKMKGDYYRYLAEVASGEKKNSVVEASEAAYKEAFEISKEQMQPTHPIRLGLALNFSVFYYEIQNAPEQACLLAKQAFDDAIAELDTLNEDSYKDSTLIMQLLRDNLTLWTSDQQDEEAGEGN
B5: HA-tagged UL97, wild type, full length (pCGN-HA-UL97) [human cytomegalovirus (HCMV)] / Flag-tagged 14-3-3 β [human] (parent complex)
chain 1: B1 chain 1
chain 2: MTMDKSELVQKAKLAEQAERYDDMAAAMKAVTEQGHELSNEERNLLSVAYKNVVGARRSSWRVISSIEQKTERNEKKQQMGKEYREKIEAELQDICNDVLELLDKYLIPNATQPESKVFYLKMKGDYFRYLSEVASGDNKQTTVSNSQQAYQEAFEISKKEMQPTHPIRLGLALNFSVFYYEILNSPEKACSLAKTAFDEAIAELDTLNEESYKDSTLIMQLLRDNLTLWTSENQGDEGDAGEGEN

The variants in the first assay derive from B1. In words: co-immunoprecipitation (IP anti-HA, Western blot quantification); U-2 OS cells; WT UL97 0.6 μg, mutant 1.2 μg expression vector; 1 μg Flag-14-3-3 plasmid; read off a plot.
In the case of chain 1 S13A, the ratio to parent is approximately 0.07.
On the same count and under the same terms, to chain 1 K355Q belongs approximately 0.62.

In another assay the parent is B2. The assay is described as above.
Consider chain 1 S13A, for which the ratio to parent was approximately 0.05.
As for chain 1 K355Q, the ratio to parent is approximately 0.2.

Variants of B3 are the subject of another assay. The description is as above.
With chain 1 S13A, the ratio to parent was approximately 0.06.
In the case of chain 1 K355Q, the ratio to parent was approximately 0.42.

The variants in the next assay derive from B4. The assay is described as above.
As for chain 1 K355Q, the ratio to parent was approximately 0.32.
chain 1 S13A: the ratio to parent was approximately 0.17.

Variants of B5 are the subject of another assay. Described as above.
With chain 1 K355Q, the ratio to parent was approximately 0.45.
For chain 1 S13A, the ratio to parent is approximately 0.14.
